The values below come from paper PMC2173853 (The Journal of Cell Biology, 2002).

What all share (assay): pull-down
Experiment [1] addresses preassembled SNARE complex of GST–Sec22p, Sed5p, Bos1p and Bet1p with Sly1p (yeast | S. cerevisiae, UniProt P22214;Q01590;P25385;P22804;P22213).
The target of experiment [2] is T1, preassembled SNARE complex of GST–Sec22p, Sed5p, Bos1p and Bet1p (yeast, UniProt P22214;Q01590;P25385;P22804).
T1 sequence 1: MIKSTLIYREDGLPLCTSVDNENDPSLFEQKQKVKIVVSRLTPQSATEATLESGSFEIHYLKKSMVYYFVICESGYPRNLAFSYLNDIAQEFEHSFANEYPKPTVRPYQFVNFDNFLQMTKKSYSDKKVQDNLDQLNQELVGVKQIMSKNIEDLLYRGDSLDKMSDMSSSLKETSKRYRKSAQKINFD
T1 sequence 2: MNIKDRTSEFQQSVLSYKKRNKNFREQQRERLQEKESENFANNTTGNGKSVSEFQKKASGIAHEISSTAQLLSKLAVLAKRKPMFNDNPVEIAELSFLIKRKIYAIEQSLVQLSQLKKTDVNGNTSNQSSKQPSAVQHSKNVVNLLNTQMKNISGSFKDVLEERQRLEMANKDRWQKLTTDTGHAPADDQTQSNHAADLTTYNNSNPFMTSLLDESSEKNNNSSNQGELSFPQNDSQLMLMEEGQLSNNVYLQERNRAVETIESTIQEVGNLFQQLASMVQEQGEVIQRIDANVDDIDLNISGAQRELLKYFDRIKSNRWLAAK
T1 sequence 3: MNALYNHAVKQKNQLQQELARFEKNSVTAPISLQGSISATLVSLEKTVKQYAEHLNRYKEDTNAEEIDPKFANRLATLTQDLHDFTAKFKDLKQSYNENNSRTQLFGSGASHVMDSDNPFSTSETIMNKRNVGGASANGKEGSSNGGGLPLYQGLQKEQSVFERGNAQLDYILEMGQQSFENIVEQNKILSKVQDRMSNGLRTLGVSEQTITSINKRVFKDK
T1 sequence 4: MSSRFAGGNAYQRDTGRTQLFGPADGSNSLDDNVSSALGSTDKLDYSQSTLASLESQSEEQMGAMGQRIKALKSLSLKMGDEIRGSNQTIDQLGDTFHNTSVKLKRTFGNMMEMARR

The target in experiment [3] is T2, GST–Sed5p (entire cytosolic region) (S. cerevisiae, UniProt Q01590 1-324).
T2 sequence: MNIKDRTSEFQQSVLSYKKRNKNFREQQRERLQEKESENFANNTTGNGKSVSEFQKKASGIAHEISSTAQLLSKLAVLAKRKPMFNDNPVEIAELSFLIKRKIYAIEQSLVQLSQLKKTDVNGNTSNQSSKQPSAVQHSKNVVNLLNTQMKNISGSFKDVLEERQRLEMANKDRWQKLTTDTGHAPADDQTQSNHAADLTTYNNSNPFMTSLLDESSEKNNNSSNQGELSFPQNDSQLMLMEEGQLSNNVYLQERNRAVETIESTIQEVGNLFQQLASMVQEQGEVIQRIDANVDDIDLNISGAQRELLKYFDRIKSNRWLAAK

Experiment [4] addresses T3, GST–Sec22p (yeast, UniProt P22214).
T3 sequence: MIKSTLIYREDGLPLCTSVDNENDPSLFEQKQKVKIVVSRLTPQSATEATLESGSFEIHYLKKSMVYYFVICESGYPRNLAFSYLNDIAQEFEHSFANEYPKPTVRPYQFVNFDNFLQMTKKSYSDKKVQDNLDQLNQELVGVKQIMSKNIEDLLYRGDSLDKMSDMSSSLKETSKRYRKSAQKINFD

The target of experiment [5] is T3, GST–Sec22p. The source holds these as a separate data set.
Experiment [6] addresses T3, GST–Sec22p. This is another data set of the same source.

Like-named read-outs stand apart in the source and are kept apart here.

B1: His6-Sec17p (full length) (natural protein)
chain: MSDPVELLKRAEKKGVPSSGFMKLFSGSDSYKFEEAADLCVQAATIYRLRKELNLAGDSFLKAADYQKKAGNEDEAGNTYVEAYKCFKSGGNSVNAVDSLENAIQIFTHRGQFRRGANFKFELGEILENDLHDYAKAIDCYELAGEWYAQDQSVALSNKCFIKCADLKALDGQYIEASDIYSKLIKSSMGNRLSQWSLKDYFLKKGLCQLAATDAVAAARTLQEGQSEDPNFADSRESNFLKSLIDAVNEGDSEQLSEHCKEFDNFMRLDKWKITILNKIKESIQQQEDDLL
With B1, the “stoichiometry N” value amounted to 2.7 Sec17p per Sed5p in experiment [1] and 3.3 Sec17p per Sed5p in experiment [2].

B2: His10-Sly1p (NH2-terminally His10-tagged full-length Sly1p) (natural protein)
chain: MAVEEIASRKDISLRDMQISAILKMLFLNKDLNNNDNITTITDDIFNQQEIIWKVLILDIKSTATISSVLRVNDLLKAGITVHSLIKQDRSPLPDVPAIYFVSPTKENIDIIVNDLKSDKYSEFYINFTSSLPRNLLEDLAQQVSITGKSDKIKQVYDQYLDFIVTEPELFSLEISNAYLTLNDPKTTEEEITGLCANIADGLFNTVLTINSIPIIRAAKGGPAEIIAEKLGTKLRDFVINTNSSSTSTLQGNDSLERGVLIILDRNIDFASMFSHSWIYQCMVFDIFKLSRNTVTIPLESKENGTDNTTAKPLATKKYDIEPNDFFWMENSHLPFPEAAENVEAALNTYKEEAAEITRKTGVTNISDLDPNSNNDTVQIQEVVKKLPELTAKKNTIDTHMNIFAALLSQLESKSLDTFFEVEQDPGSTKTRSRFLDILKDGKTNNLEDKLRSFIVLYLTSTTGLPKDFVQNVENYFKENDYDINALKYVYKLREFMQLSNMSLQNKSLEDGSDSAFKPSNLTLSGIYGLTEGKLQGGVGSLISGIKKLLPEKKTIPITNVVDAIMDPLNSSQKNLETTDSYLYIDPKITRGSHTRKPKRQSYNKSLVFVVGGGNYLEYQNLQEWAHSQLHNPKKVMYGSTAITTPAEFLNEISRLGASNSSNNDA
As to B2, the “stoichiometry of Sly1p–Sed5p–Bos1p–Sec22p–Bet1p in the isolated complex” value in experiment [2] is 1 molar ratio (GST–Sec22p = 1.4). For the same molecule, the “stoichiometry N” value in experiment [3] is 1.2 per Sed5p.

B3: preformed Sed5p–Sly1p heterodimer in solution (His-Sly1p–His-Sed5p) (complex)
chain 1: MAVEEIASRKDISLRDMQISAILKMLFLNKDLNNNDNITTITDDIFNQQEIIWKVLILDIKSTATISSVLRVNDLLKAGITVHSLIKQDRSPLPDVPAIYFVSPTKENIDIIVNDLKSDKYSEFYINFTSSLPRNLLEDLAQQVSITGKSDKIKQVYDQYLDFIVTEPELFSLEISNAYLTLNDPKTTEEEITGLCANIADGLFNTVLTINSIPIIRAAKGGPAEIIAEKLGTKLRDFVINTNSSSTSTLQGNDSLERGVLIILDRNIDFASMFSHSWIYQCMVFDIFKLSRNTVTIPLESKENGTDNTTAKPLATKKYDIEPNDFFWMENSHLPFPEAAENVEAALNTYKEEAAEITRKTGVTNISDLDPNSNNDTVQIQEVVKKLPELTAKKNTIDTHMNIFAALLSQLESKSLDTFFEVEQDPGSTKTRSRFLDILKDGKTNNLEDKLRSFIVLYLTSTTGLPKDFVQNVENYFKENDYDINALKYVYKLREFMQLSNMSLQNKSLEDGSDSAFKPSNLTLSGIYGLTEGKLQGGVGSLISGIKKLLPEKKTIPITNVVDAIMDPLNSSQKNLETTDSYLYIDPKITRGSHTRKPKRQSYNKSLVFVVGGGNYLEYQNLQEWAHSQLHNPKKVMYGSTAITTPAEFLNEISRLGASNSSNNDA
chain 2: MNIKDRTSEFQQSVLSYKKRNKNFREQQRERLQEKESENFANNTTGNGKSVSEFQKKASGIAHEISSTAQLLSKLAVLAKRKPMFNDNPVEIAELSFLIKRKIYAIEQSLVQLSQLKKTDVNGNTSNQSSKQPSAVQHSKNVVNLLNTQMKNISGSFKDVLEERQRLEMANKDRWQKLTTDTGHAPADDQTQSNHAADLTTYNNSNPFMTSLLDESSEKNNNSSNQGELSFPQNDSQLMLMEEGQLSNNVYLQERNRAVETIESTIQEVGNLFQQLASMVQEQGEVIQRIDANVDDIDLNISGAQRELLKYFDRIKSNRWLAAK
For B3, the “stoichiometry N” value with GST–Sec22p [4] was found to be 0.44 Sed5p per Sec22p; with GST–Sec22p [5], 0.3 Sed5p per Sec22p; in the experiment with GST–Sec22p [6], 0.99 Sed5p per Sec22p.
